The text below walks through data of patent US20190055279A1, “NOVEL POLYPEPTIDES WITH IMPROVED PROTEOLYTIC STABILITY, AND METHODS OF PREPARING AND USING SAME” (TUFTS UNIVERSITY, priority 2015, published 2019).

Where only a bound is given, the exact number is not on record here.

Assay [1] concerns the target GLP-1 receptor.
The target in assay [2] is GLP-1 receptor. The source holds these as a separate data set.
For assay [3], the target named is GLP-1 receptor. The source holds these as a separate data set.

Sequence of para-trifluoromethyldiazirine benzyl derivative of GLP-1 (peptide) (peptide): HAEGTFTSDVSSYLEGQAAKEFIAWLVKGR

As for Exenatide (peptide), the EC50 (pM), agonist potency, CRE-luciferase reporter with GLP-1 receptor [1] came out at 1.1 pM.

Substance N-acetyl-GLP-1 (peptide) gave an agonist potency, CRE-luciferase reporter with GLP-1 receptor [2] of 50 fold.

In the case of dipeptidyl protease 4 (enzyme), the degradation by DPP4, read as potency loss on human GLP-2R with GLP-2 was over 97%. Moreover, the values for the degradation by DPP4, read as potency loss in the GLP-1R agonist assay with GLP-1 (7-36) amide and in the assay with Liraglutide were over 99.8% and over 98%, respectively.

The substance “para-trifluoromethyldiazirine benzyl derivative of GLP-1 (peptide)” came in with an agonist potency and efficacy with GLP-1 receptor [3] of 123 fold.
